B1: Refmab #5 (antibody, V domains shown)
VH: QVQLVQSGAEVKKPGASVKVSCKASGYTFTNYDINWVRQAPGQGLEWIGWIYPGDGSTKYNEKFKAKATLTADTSTSTAYMELRSLRSDDTAVYYCASGYEDAMDYWGQGTTVTVSS
VL: DIQMTQSPSSLSASVGDRVTINCKASQDINSYLSWFQQKPGKAPKTLIYRANRLVDGVPSRFSGSGSGQDYTLTISSLQPEDFATYYCLQYDEFPLTFGGGTKVEIK
notes: The alanine scan used IgG or Fab
B2: Refmab #6 (antibody, V domains shown)
VH: QVQLQQPGAEVVKPGASVKMSCKASGYTFTSYYIHWIKQTPGQGLEWVGVIYPGNDDISYNQKFQGKATLTADKSSTTAYMQLSSLTSEDSAVYYCAREVRLRYFDVWGQGTTVTVSS
VL: EIVLTQSPGSLAVSPGERVTMSCKSSQSVFFSSSQKNYLAWYQQIPGQSPRLLIYWASTRESGVPDRFTGSGSGTDFTLTISSVQPEDLAIYYCHQYLSSRTFGQGTKLEIK
notes: as for B1

Columns and labels:
Test in all cases: flow cytometry, HEK293-T, alanine scan;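 further: transiently transfected HEK293-T cells expressing single alanine mutants of human CD33 (alanine residues changed to serine), antibody binding fluorescence minus background, relative to wild type CD33, mean of duplicates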
[1] = target: human CD33 F279A (human, UniProt P20138 18-364)
Protocol: (§1) An alanine scan on human CD33 was performed to the determine the residues on CD33 that are involved in binding to the antibodies investigated. […] Briefly, a mutation library of CD33 was created by high-throughput, site-directed mutagenesis. Each residue was individually mutated to alanine, with alanine codons mutated to serine. The mutant library was arrayed in 384-well microplates and transiently transfected into HEK293-T. Following transfection, cells were incubated with the indicated antibodies (IgG or Fab) at concentrations pre-determined using an independent immunofluorescence titration curve on wild type CD33. […] Binding of each antibody to each mutant clone was determined in duplicates. For each point, background fluorescence was subtracted from the raw data, which were then normalized to antibody reactivity with wild type CD33.
(§2) Critical residues for antibody binding (outlined in dark grey) were residues whose mutations led to a binding of the test Abs of less than 20%. Additional secondary residues (outlined in light grey) were identified that led to a binding of the test Abs of between 20 and 40% as compared to the wild type CD33.

[2] = target: human CD33 F280A (human, UniProt P20138 18-364)
Protocol: as §1, §2

[3] = target: human CD33 K283A (human, UniProt P20138 18-364)
Protocol: as §1, §2

[4] = target: human CD33 T284A (human, UniProt P20138 18-364)
Protocol: as §1, §2

[5] = target: human CD33 R286A (human, UniProt P20138 18-364)
Protocol: as §1, §2

[6] = target: human CD33 R287A (human, UniProt P20138 18-364)
Protocol: as §1, §2

[7] = target: human CD33 K288A (human, UniProt P20138 18-364)
Protocol: as §1, §2

[8] = target: human CD33 A289S (human, UniProt P20138 18-364)
Sequence of human CD33 A289S (P20138 18-364 A289S limits assumed): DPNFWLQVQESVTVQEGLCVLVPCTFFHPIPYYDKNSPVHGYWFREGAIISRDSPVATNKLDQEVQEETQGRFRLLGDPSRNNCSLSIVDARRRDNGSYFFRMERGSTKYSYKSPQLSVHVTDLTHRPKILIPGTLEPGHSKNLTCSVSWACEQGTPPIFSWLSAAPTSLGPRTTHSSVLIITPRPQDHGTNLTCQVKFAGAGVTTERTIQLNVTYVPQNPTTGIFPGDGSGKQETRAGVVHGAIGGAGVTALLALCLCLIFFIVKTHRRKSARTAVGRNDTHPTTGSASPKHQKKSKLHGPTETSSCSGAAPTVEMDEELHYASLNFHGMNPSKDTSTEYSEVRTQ
Protocol: as §1, §2

[9] = target: human CD33 G295A (human, UniProt P20138 18-364)
Sequence of human CD33 G295A (P20138 18-364 G295A limits assumed): as the sequence (P20138 18-364 A289S limits assumed) above, with S272A, G278A counted along it
Protocol: as §1, §2

[10] = target: human CD33 N297A (human, UniProt P20138 18-364)
Protocol: as §1, §2

[11] = target: human CD33 D298A (human, UniProt P20138 18-364)
Sequence of human CD33 D298A (P20138 18-364 D298A limits assumed): as the sequence (P20138 18-364 A289S limits assumed) above, with S272A, D281A counted along it
Protocol: as §1, §2

[12] = target: human CD33 T299A (human, UniProt P20138 18-364)
Sequence of human CD33 T299A (P20138 18-364 T299A limits assumed): as the sequence (P20138 18-364 A289S limits assumed) above, with S272A, T282A counted along it
Protocol: as §1, §2

[13] = target: human CD33 H300A (human, UniProt P20138 18-364)
Protocol: as §1, §2

[14] = target: human CD33 P301A (human, UniProt P20138 18-364)
Sequence of human CD33 P301A (P20138 18-364 P301A limits assumed): as the sequence (P20138 18-364 A289S limits assumed) above, with S272A, P284A counted along it
Protocol: as §1, §2

[15] = target: human CD33 T302A (human, UniProt P20138 18-364)
Sequence of human CD33 T302A (P20138 18-364 T302A limits assumed): as the sequence (P20138 18-364 A289S limits assumed) above, with S272A, T285A counted along it
Protocol: as §1, §2

[16] = target: human CD33 G304A (human, UniProt P20138 18-364)
Protocol: as §1, §2

[17] = target: human CD33 S305A (human, UniProt P20138 18-364)
Sequence of human CD33 S305A (P20138 18-364 S305A limits assumed): as the sequence (P20138 18-364 A289S limits assumed) above, with S272A, S288A counted along it
Protocol: as §1, §2

[18] = target: human CD33 A306S (human, UniProt P20138 18-364)
Sequence of human CD33 A306S (P20138 18-364 A306S limits assumed): as the sequence (P20138 18-364 A289S limits assumed) above, with S272A, A289S counted along it
Protocol: as §1, §2

[19] = target: human CD33 K309A (human, UniProt P20138 18-364)
Protocol: as §1, §2

[20] = target: human CD33 H310A (human, UniProt P20138 18-364)
Protocol: as §1, §2

[21] = target: human CD33 Q311A (human, UniProt P20138 18-364)
Sequence of human CD33 Q311A (P20138 18-364 Q311A limits assumed): as the sequence (P20138 18-364 A289S limits assumed) above, with S272A, Q294A counted along it
Protocol: as §1, §2

[22] = target: human CD33 S314A (human, UniProt P20138 18-364)
Protocol: as §1, §2

[23] = target: human CD33 T320A (human, UniProt P20138 18-364)
Protocol: as §1, §2

[24] = target: human CD33 T322A (human, UniProt P20138 18-364)
Protocol: as §1, §2

[25] = target: human CD33 L271A (human, UniProt P20138 18-364)
Sequence of human CD33 L271A (P20138 18-364 L271A limits assumed): as the sequence (P20138 18-364 A289S limits assumed) above, with L254A, S272A counted along it
Protocol: as §1, §2

[26] = target: human CD33 A328S (human, UniProt P20138 18-364)
Sequence of human CD33 A328S (P20138 18-364 A328S limits assumed): as the sequence (P20138 18-364 A289S limits assumed) above, with S272A, A311S counted along it
Protocol: as §1, §2

[27] = target: human CD33 P330A (human, UniProt P20138 18-364)
Protocol: as §1, §2

[28] = target: human CD33 T331A (human, UniProt P20138 18-364)
Protocol: as §1, §2

[29] = target: human CD33 V332A (human, UniProt P20138 18-364)
Protocol: as §1, §2

[30] = target: human CD33 D335A (human, UniProt P20138 18-364)
Sequence of human CD33 D335A (P20138 18-364 D335A limits assumed): as the sequence (P20138 18-364 A289S limits assumed) above, with S272A, D318A counted along it
Protocol: as §1, §2

[31] = target: human CD33 E337A (human, UniProt P20138 18-364)
Protocol: as §1, §2

[32] = target: human CD33 Y340A (human, UniProt P20138 18-364)
Protocol: as §1, §2

[33] = target: human CD33 A341S (human, UniProt P20138 18-364)
Sequence of human CD33 A341S (P20138 18-364 A341S limits assumed): as the sequence (P20138 18-364 A289S limits assumed) above, with S272A, A324S counted along it
Protocol: as §1, §2

[34] = target: human CD33 N344A (human, UniProt P20138 18-364)
Sequence of human CD33 N344A (P20138 18-364 N344A limits assumed): as the sequence (P20138 18-364 A289S limits assumed) above, with S272A, N327A counted along it
Protocol: as §1, §2

[35] = target: human CD33 L273A (human, UniProt P20138 18-364)
Protocol: as §1, §2

[36] = target: human CD33 C274A (human, UniProt P20138 18-364)
Protocol: as §1, §2

| Binder | Mean % WT Binding [1] | Mean % WT Binding [2] | Mean % WT Binding [3] | Mean % WT Binding [4] | Mean % WT Binding [5] | Mean % WT Binding [6] | Mean % WT Binding [7] | Mean % WT Binding [8] | Mean % WT Binding [9] | Mean % WT Binding [10] | Mean % WT Binding [11] | Mean % WT Binding [12] | Mean % WT Binding [13] | Mean % WT Binding [14] | Mean % WT Binding [15] | Mean % WT Binding [16] | Mean % WT Binding [17] | Mean % WT Binding [18] | Mean % WT Binding [19] | Mean % WT Binding [20] | further results |
| --- | --- | --- | --- | --- | --- | --- | --- | --- | --- | --- | --- | --- | --- | --- | --- | --- | --- | --- | --- | --- | --- |
| B1 | 100 % WT binding | 124 % WT binding | 82.9 % WT binding | 103 % WT binding | 97.5 % WT binding | 97.1 % WT binding | 97.9 % WT binding | 91.8 % WT binding | 101 % WT binding | 83.7 % WT binding | 84.5 % WT binding | 91.1 % WT binding | 92.8 % WT binding | 90.1 % WT binding | 77 % WT binding | 79.1 % WT binding | 103 % WT binding | 88.5 % WT binding | 85.7 % WT binding | 91.3 % WT binding | Mean % WT Binding [21]: 126 % WT binding; Mean % WT Binding [22]: 112 % WT binding; Mean % WT Binding [23]: 121 % WT binding; Mean % WT Binding [24]: 100 % WT binding; Mean % WT Binding [25]: 84.9 % WT binding; Mean % WT Binding [26]: 105 % WT binding; Mean % WT Binding [27]: 90.3 % WT binding; Mean % WT Binding [28]: 88.1 % WT binding; Mean % WT Binding [29]: 71.6 % WT binding; Mean % WT Binding [30]: 86.2 % WT binding; Mean % WT Binding [31]: 114 % WT binding; Mean % WT Binding [32]: 88.6 % WT binding; Mean % WT Binding [33]: 113 % WT binding; Mean % WT Binding [34]: 87.9 % WT binding; Mean % WT Binding [35]: 102 % WT binding; Mean % WT Binding [36]: 87.4 % WT binding |
| B2 | 102 % WT binding | 106 % WT binding | 88.6 % WT binding | 105 % WT binding | 95.6 % WT binding | 71.5 % WT binding | 100 % WT binding | 96 % WT binding | 92.1 % WT binding | 95.6 % WT binding | 106 % WT binding | 104 % WT binding | 101 % WT binding | 105 % WT binding | 101 % WT binding | 100 % WT binding | 86.8 % WT binding | 99.2 % WT binding | 98.8 % WT binding | 94.9 % WT binding | Mean % WT Binding [21]: 88.7 % WT binding; Mean % WT Binding [22]: 96.3 % WT binding; Mean % WT Binding [23]: 100 % WT binding; Mean % WT Binding [24]: 110 % WT binding; Mean % WT Binding [25]: 106 % WT binding; Mean % WT Binding [26]: 94 % WT binding; Mean % WT Binding [27]: 97.9 % WT binding; Mean % WT Binding [28]: 90.9 % WT binding; Mean % WT Binding [29]: 100 % WT binding; Mean % WT Binding [30]: 98.2 % WT binding; Mean % WT Binding [31]: 105 % WT binding; Mean % WT Binding [32]: 101 % WT binding; Mean % WT Binding [33]: 89.6 % WT binding; Mean % WT Binding [34]: 67.7 % WT binding; Mean % WT Binding [35]: 104 % WT binding; Mean % WT Binding [36]: 92.3 % WT binding |
